Residue numbers refer to the chain shown, from its start. In names and notes the source's numbering stands. Several values for one entry are separate records, joined by “and”; a condition that tells them apart may be missing. Equal values may be shown once. Read-outs that look alike come from different tables or passages of the source. Values belong to the molecule of their own block, whether it stands above or below them.
Tests used:
[1] = Baseline stability in indirect and MTSP buffer (+/-EDTA) and PBS at 37° C., peptide substrate EGVDAE-QF; assay type: physicochemical; settings: indirect buffer pH 7.4, MTSP buffer
Method: Further, various chymase-based engineered proteases were tested to evaluate their baseline stability, by testing the effects of indirect and MTSP buffer (+/−EDTA) on the chymase-based engineered proteases. The peptide substrate EGVDAE-QF (SEQ ID NO: 52) was used for these experiments.
FIGS. 4A-4E depict graphs showing the stability of five different chymase proteases tested using a peptide substrate, in PBS, at 37° C.

[2] = system: EGVD/AE-ACT (SEQ ID NO: 53); assay: Second order rate constant k*app with EGVD/AE-ACT serpin bait; assay type: biochemical
Method: Selected chymase-based engineered proteases were tested to measure the activity of these proteases, by using an active site titration method based on reaction with the inhibitory serpin bait, followed by HPLC analysis to quantitate the active fraction. All references in this Example, including Table 9, to engineered proteases are depicted in chymotrypsin numbering. See Table 6 for the chymotrypsin numbering key for the modified protease domain of chymase. The HPLC analysis detects a shift in the measured peak when the serpin bait is present, an indication that the protease is binding the bait and therefore active. Briefly, a working concentration of 24 μM of serpin bait was prepared from stock solution, with 50 μM of low molecular weight heparin for antithrombin (AT)-based baits. Protease solutions were prepared by using 30 μL of a 5 μM working solution. Reaction mixtures were incubated for 2 hours at 37° C., and each reaction mixture (protease alone or protease with bait) was analyzed by HPLC using standard protocols. All protease alone samples were run first, then followed by the protease with serpin bait samples. A summary of the results for the proteases tested is summarized in Table 9 below. kcat/Km was measured using EGVD/AE-QF (SEQ ID NO: 52) and second order rate constant K*app was measured using EGVD/AE-ACT (SEQ ID NO: 53).

Human Factor B [3] = molecular target: T1, Human Factor B (Homo sapiens, UniProt P00751); assay: Human Factor B cleavage EC50 in 80% human plasma (Table 10A); assay type: biochemical
Method: Cleavage of Factor B by various engineered proteases was evaluated. Engineered chymase-, MTSP-1-, and uPA-based proteases were tested. All references in this Example, including Tables 10A, 10B, 11A, and 11B, to engineered proteases are depicted in chymotrypsin numbering. The chymotrypsin numbering key for the modified protease domains of engineered proteases are found in Tables 2, 4, and 6 for uPA, MTSP-1, and chymase, respectively. These experiments were also performed to evaluate the stability of non-naturally occurring chymases in various media, including cynomolgus monkey vitreous humor, human plasma, and phosphate buffered saline (PBS). Briefly, Factor B was diluted into an assay buffer and incubated at 37° C. with naturally occurring (wild type) and non-naturally occurring (engineered) proteases in vitreous humor, plasma, or PBS, and the reactions were quenched with HCl at various time points. The time points tested for chymase include T=0 which used 6 hours pre-incubation, T=2 hours which used 4 hours pre-incubation, T=4 hours which used 2 hours pre-incubation, and T=6 hours which used 0 hours pre-incubation. Assaying of the sample was performed with ELISA, or alpha screen for human C3 cleavage, using standard protocols.
A summary of the results is presented in Tables 10A-10B below, showing the various tested proteases, the concentration of the protease used in nM and the EC50 of human Factor B cleavage. Table 10 presents human Factor B cleavage by various non-naturally occurring chymase-based engineered proteases, tested in 80% human plasma, compared against a chymase comprising the mutation string […]. Blank cells indicate that a test was not performed for a particular protease mutation string.

[4] = Second order rate constant (k*) for inhibition by plasma, extrapolation of half-life in 100% plasma; assay type: in vitro ADME
Method: Briefly, a baseline chymase having the modifications C22S/A226R was used. The concentration of the baseline chymase and the tested chymase-based engineered proteases, listed in Table 11B below, were used at 50 nM, and another tested chymase C22S/L99R/F173Y/K192R/S218L/A226R was used at 25 nM. For the baseline chymase, a time course of protease activity in the presence of plasma was measured using 4.2 uM CPQ2-ITLLSA-K(5FAM)-K-PEG8-K(biotin)-NH2 (SEQ ID NO: 17)/21 uM Neutravidin at 37° C.

serpins = assay: Serpin inhibition tests of chymase-based engineered proteases; assay type: biochemical
Method: Inhibition tests were carried out using chymase-based engineered proteases. Various serpins, which are capable of inhibiting protease activity, were used to test whether these could be used for adequate inhibition of the tested chymase-based engineered proteases, to enable selection of an engineered protease resistant to inhibition in plasma. All references in this Example to engineered proteases are depicted in chymotrypsin numbering. The chymotrypsin numbering key for the modified protease domains of engineered proteases are found in Tables 2, 4, and 6 for uPA, MTSP-1, and chymase, respectively.

[5] = Half-life in 50% human plasma of chymase-based engineered proteases; assay type: in vitro ADME; settings: EGVD′AE substrate
Method: Table 10B presents human Factor B cleavage by various engineered chymase-, MTSP-1-, or uPA-based proteases, tested in mouse or human plasma. For ELISA analysis of Factor B cleavage, briefly, anti-Ba was used, and Bb was detected with anti-Bb. A dynamic range of 25-1600 pM was used. Half-life in 50% human plasma was also calculated for various chymase-based engineered proteases.

Human Factor B [6] = molecular target: T1, Human Factor B; assay: Human Factor B cleavage EC50 in 80% human plasma (Table 10A); assay type: biochemical; settings: chymase-based; 64% plasma; read-out: fB Cleavage, 64% plasma EC50
[7] = system: Factor B depleted human serum spiked with human Factor B, rabbit or chicken RBCs; assay: Factor B add-back hemolysis assay; assay type: biochemical; settings: MTSP-1 scaffold, read-out: Hu fB Add-Back EC50
Method: Hemolysis assays were performed to evaluate the hemolytic activity of various lots of Factor B, a lot obtained from CompTech as compared to a lot expressed in-house. Briefly, Factor B depleted human serum was used, and plasma purified or recombinant human Factor B was used for the add-back. Rabbit red blood cells (RBCs) or chicken RBCs were washed in GVB/Mg/EGTA, and the depleted serum was spiked with Factor B. The RBC lysis was then monitored with CVF/FD/human Factor B convertase. These were analyzed to create standard curves from which the Factor B lots were compared. FIGS. 5-6 depict a bar graph of controls used for the hemolysis assay and the standard curves measured from the tested engineered proteases from the Factor B add-back hemolysis assay, respectively. […] This engineered protease was tested at two concentrations (samples 1 and 2). All references in this Example to engineered proteases are depicted in chymotrypsin numbering. The chymotrypsin numbering key for the modified protease domains of engineered proteases are found in Tables 2, 4, and 6 for uPA, MTSP-1, and chymase, respectively.

[8] = Plasma Inhibitor: alpha-2-marcroglobin (A2M)

T1 sequence (P00751 26-764): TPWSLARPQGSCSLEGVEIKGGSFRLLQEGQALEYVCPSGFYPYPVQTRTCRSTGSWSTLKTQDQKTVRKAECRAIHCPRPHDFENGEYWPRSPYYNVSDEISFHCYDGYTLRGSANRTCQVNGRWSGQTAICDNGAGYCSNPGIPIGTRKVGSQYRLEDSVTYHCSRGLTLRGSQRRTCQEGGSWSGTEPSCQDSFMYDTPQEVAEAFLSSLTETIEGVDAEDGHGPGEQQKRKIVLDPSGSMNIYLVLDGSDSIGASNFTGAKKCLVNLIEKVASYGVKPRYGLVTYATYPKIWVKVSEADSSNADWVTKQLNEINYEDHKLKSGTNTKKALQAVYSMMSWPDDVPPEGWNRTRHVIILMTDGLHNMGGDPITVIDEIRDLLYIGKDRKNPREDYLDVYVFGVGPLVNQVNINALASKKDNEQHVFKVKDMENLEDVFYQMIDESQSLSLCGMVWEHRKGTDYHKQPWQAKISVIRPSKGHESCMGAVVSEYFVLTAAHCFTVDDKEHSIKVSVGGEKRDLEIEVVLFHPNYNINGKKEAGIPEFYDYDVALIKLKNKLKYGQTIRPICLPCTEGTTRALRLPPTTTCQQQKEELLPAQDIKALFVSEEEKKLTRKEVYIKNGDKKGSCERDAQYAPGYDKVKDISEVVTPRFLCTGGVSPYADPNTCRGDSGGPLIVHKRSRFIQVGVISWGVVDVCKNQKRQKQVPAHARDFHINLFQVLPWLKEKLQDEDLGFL

fB Cleavage, 80% plasma EC50 (nM) (Human Factor B [3]; chymase-based, 80% human plasma): none
kapp (serpins; Plasma Inhibitor: ACT): 1045 M⁻¹ s⁻¹
kapp (serpins; [8]): 812 M⁻¹ s⁻¹
B2: C22S/A226R: chymase-based engineered protease, baseline chymase (protein, listed as Homo sapiens)
chain: IIGGTESKPHSRPYMAYLEIVTSNGPSKFCGGFLIRRNFVLTAAHCAGRSITVTLGAHNITEEEDTWQKLEVIKQFRHPKYNTSTLHHDIMLLKLKEKASLTLAVGTLPFPSQFNFVPPGRMCRVAGWGRTGVLKPGSDTLQEVKLRLMDPQACSHFRDFDHNLQLCVGNPRKTKSAFKGDSGGPLLCAGVAQGIVSYGRSDAKPPRVFTRISHYRPWINQILQAN
k*app EGVD/AE-ACT (SEQ ID NO: 53) [2]: 77
calculated t1/2 (in 100% plasma) ([4]; extrapolated from k*): 1.58 min
k* ([4]; inhibition by plasma, 37° C.): 7.32E−5 %^−1s^−1

EC50 (Human Factor B [3]; Table 20, cleavage activity as of Table 10, unit inferred, read-out: EC50 Fb Cleavage): 170 nM
EC50 (Human Factor B [3]; chymase-based engineered proteases, no plasma stated, read-out: fB Cleavage EC50): 151 to 182 nM and 177 nM
kapp (serpins; Plasma Inhibitor: ACT): 428 M⁻¹ s⁻¹
kapp (serpins; [8]): 645 M⁻¹ s⁻¹
EC50 (Human Factor B [6]): 6000 nM and 5620 nM
B3: C22S/F173Y/D175N/A226R: chymase-based engineered protease (protein, listed as Homo sapiens)
chain: B2 chain with F157Y, D159N
t1/2 in 50% human plasma (min) (EGVD′AE)(SEQ ID NO: 13) [5]: 7.3 min and 9.0 min

kapp (serpins; Plasma Inhibitor: plasma antichymotrypsin (plasma ACT)): 31166 M⁻¹ s⁻¹
B4: C22S: chymase-based engineered protease, chymotrypsin numbering (protein, listed as Homo sapiens)
chain: B2 chain with R207A
k*app EGVD/AE-ACT (SEQ ID NO: 53) [2]: 30.2

Second part, the molecule before the results:

B1: Wild type or naturally occurring chymase: wild type human mast cell chymase protease domain (SEQ ID NO: 6) (protein, listed as Homo sapiens)
chain: B2 chain with S7C, R207A
stability (remaining activity) in buffers, peptide substrate [1]: loss of activity in all buffers

B5: F41V/L99H/G151V/F173Y/Y215K/R217G/A226R: chymase-based engineered protease (protein, listed as Homo sapiens)
chain: B2 chain with S7C, F29V, L86H, G137V, F157Y, Y198K, R200G
k*app EGVD/AE-ACT (SEQ ID NO: 53) [2]: 649

B6: MTSP-1 (protein, listed as Homo sapiens)
chain: VVGGTDADEGEWPWQVSLHALGQGHICGASLISPNWLVSAAHCYIDDRGFRYSDPTQWTAFLGLHDQSQRSAPGVQERRLKRIISHPFFNDFTFDYDIALLELEKPAEYSSMVRPICLPDASHVFPAGKAIWVTGWGHTQYGGTGALILQKGEIRVINQTTCENLLPQQITPRMMCVGFLSGGVDSCQGDSGGPLSSVEADGRIFQAGVVSWGDGCAQRNKPGVYTRLPLFRDWIKENTGV
EC50 ([7]; [Protease]high 400 nM): 32.2 nM
EC50 ([7]; [Protease]high 4000 nM): 37.3 nM
